The target in test [1] is T1, human pituitary adenylate cyclase-activating polypeptide type I receptor (human, UniProt P41586 21-468).
T1 construct: whole, on cells; On SH-SY5Y or recombinant CHO cells (cAMP assay), as membranes of hPAC-1 AequoScreen CHO cells (radioligand assay) and on CHOK1/huPac1 whole cells (KinExA); also called human PAC1; hPAC1
T1 sequence (looked up): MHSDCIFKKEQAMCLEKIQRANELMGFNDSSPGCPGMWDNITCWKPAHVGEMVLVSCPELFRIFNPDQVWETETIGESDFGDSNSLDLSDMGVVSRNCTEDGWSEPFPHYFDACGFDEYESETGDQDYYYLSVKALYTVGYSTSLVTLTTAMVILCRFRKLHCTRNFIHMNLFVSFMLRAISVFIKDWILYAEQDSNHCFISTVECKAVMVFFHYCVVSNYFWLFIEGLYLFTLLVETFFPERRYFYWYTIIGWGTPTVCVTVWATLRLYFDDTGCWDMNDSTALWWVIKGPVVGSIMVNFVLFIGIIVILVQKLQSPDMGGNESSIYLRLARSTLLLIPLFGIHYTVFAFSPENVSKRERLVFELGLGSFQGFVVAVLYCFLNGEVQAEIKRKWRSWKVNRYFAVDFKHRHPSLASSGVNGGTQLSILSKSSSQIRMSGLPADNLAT
Put plainly: radioligand competition, hPAC1 CHO membranes; competitor 125I-26B. Background: Displacement assays read how much labelled ligand stays bound in the presence of the test substance.
Procedure: (§1) The plates were incubated at room temperature for 2 hours with shaking at 60 rpm, and then the contents of each well were filtered over 0.5% polyethyleneimine (PEI)-treated (for at least two hours) GF/C 96-well filter plates. The GF/C filter plates were washed five times with ice-cold 50 mM Tris, pH 7.5 and dried in an oven at 55° C. for 1 hour. The bottoms of the GF/C plates were then sealed. 40 μl Microscint™ 20 was added to each well, the tops of the GF/C plates were sealed with TopSeal™-A (a press-on adhesive sealing film), and the GF/C plates were counted with TopCount NXT (Packard). The data were analyzed using Prizm (GraphPad Software Inc.)

Test [2] concerns the target T1, human pituitary adenylate …. Put plainly: KinExA, CHOK1/huPac1 whole cells. In general terms: A kinetic exclusion assay measures how much of one partner remains free in solution.
Procedure: Binding of anti-Pac1 antibody with CHOK1/huPac1 cells were tested on KinExA. […] Samples containing anti-Pac1 antibody and whole cells were incubated with rotation at room temperature for 4 hours before 5-minute 220-g centrifugation at 4° C. to separate the whole cells and anti-Pac1 antibody-cell complexes from unbound anti-Pac1 antibody. The supernatants containing free anti-Pac1 antibody were filtered through 0.22 μm filter before loading to the goat-anti-huFc-coated beads on KinExA. […] The binding signal is proportional to the concentration of free anti-Pac1 antibody in solution at each cell density. Equilibrium dissociation constant (KD) was estimated by n-curve analysis in KinExA™ Pro software (Sapidyne Instruments, Inc., Boise, Id.).
For test [3] the target is unchanged. Briefly: radioligand competition, hPAC1 CHO membranes; competitor 125I-39B.
Procedure: as §1
The target is the same in test [4]. Briefly: radioligand competition, hPAC1 CHO membranes; competitor 125I-29B.
Procedure: as §1
Test [5] has the same target. Briefly: radioligand competition, hPAC1 CHO membranes; competitor 125I-14B.
Procedure: as §1
In test [6] the target is T2, rat PAC1 (rat, UniProt P32215 20-523).
T2 sequence (looked up): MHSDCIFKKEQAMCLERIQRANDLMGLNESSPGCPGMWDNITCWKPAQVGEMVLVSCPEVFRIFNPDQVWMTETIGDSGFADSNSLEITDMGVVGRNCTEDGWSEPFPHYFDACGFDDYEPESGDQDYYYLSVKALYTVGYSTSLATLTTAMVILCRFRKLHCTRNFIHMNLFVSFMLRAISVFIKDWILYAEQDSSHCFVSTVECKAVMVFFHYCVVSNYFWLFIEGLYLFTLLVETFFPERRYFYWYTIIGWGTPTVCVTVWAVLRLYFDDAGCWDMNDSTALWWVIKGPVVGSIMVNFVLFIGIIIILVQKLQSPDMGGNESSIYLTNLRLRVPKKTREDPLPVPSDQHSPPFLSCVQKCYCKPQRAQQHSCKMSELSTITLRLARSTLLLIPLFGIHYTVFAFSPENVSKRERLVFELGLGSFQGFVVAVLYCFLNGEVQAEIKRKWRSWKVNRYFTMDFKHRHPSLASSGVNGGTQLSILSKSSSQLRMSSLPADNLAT
Put plainly: cell-based or functional assay.

In test [7] the target is cyno PAC1 (cynomolgus). Put plainly: cell-based or functional assay.
For test [8], the target named is T3, human VPAC1 (human, UniProt P32241 31-457).
T3 sequence (looked up): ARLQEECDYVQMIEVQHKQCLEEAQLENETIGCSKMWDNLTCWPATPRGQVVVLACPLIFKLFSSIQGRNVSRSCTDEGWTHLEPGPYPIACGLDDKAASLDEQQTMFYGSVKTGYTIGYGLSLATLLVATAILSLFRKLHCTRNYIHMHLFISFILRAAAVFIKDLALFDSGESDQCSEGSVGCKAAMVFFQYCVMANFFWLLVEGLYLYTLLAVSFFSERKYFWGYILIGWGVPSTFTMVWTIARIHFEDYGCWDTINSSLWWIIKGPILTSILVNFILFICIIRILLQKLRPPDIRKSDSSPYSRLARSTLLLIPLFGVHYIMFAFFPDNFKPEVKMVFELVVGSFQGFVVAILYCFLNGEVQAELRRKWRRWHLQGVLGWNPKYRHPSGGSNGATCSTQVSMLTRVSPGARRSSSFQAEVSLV
Put plainly: cell-based or functional assay.

Test [9] addresses T4, human VPAC2 (human, UniProt P41587 24-438).
T4 sequence (looked up): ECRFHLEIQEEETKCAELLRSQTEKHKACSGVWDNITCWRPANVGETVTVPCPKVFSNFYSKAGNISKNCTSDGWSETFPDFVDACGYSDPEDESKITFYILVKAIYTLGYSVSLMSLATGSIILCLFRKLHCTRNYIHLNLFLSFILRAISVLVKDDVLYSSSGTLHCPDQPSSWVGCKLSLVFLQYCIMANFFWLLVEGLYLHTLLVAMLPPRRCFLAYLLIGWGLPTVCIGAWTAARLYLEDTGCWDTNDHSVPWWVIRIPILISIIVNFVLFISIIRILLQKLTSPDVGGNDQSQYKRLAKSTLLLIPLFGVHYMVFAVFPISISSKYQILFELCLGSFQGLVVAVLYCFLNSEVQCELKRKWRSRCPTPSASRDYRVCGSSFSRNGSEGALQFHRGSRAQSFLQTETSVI
Put plainly: cell-based or functional assay.

Test [10] deals with T1, human pituitary adenylate …. Briefly: cell-based or functional assay.
Test [11] shares this target. Put plainly: radioligand competition, hPAC1 CHO membranes; competitor 125I-01B.
Procedure: as §1
Test [12] shares this target. Briefly: radioligand competition, hPAC1 CHO membranes; competitor 125I-14A.
Procedure: as §1
For test [13] the target is unchanged. Briefly: radioligand competition, hPAC1 CHO membranes; competitor 125I-29A.
Procedure: as §1
Test [14] shares this target. Briefly: radioligand competition, hPAC1 CHO membranes; competitor 125I-26A.
Procedure: as §1
Test [15] has the same target. Briefly: radioligand competition, hPAC1 CHO membranes; competitor 125I-39A.
Procedure: as §1
Test [16] concerns the target T5, VPAC2.
T5 sequence (P41587 whole entry, species assumed, looked up): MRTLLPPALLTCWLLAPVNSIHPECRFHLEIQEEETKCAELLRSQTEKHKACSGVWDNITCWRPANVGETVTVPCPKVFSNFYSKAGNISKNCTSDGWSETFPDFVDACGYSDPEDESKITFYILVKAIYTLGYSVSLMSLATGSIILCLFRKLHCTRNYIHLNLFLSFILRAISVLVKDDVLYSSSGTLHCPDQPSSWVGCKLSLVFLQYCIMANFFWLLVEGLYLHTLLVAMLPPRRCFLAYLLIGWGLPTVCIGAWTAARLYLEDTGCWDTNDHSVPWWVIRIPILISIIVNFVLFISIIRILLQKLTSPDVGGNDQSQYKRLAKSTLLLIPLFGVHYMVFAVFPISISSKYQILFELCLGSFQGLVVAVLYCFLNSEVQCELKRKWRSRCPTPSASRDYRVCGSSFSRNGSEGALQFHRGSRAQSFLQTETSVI
Put plainly: cell-based or functional assay.

In test [17] the target is T1, human pituitary adenylate …. Put plainly: radioligand competition, hPAC1 CHO membranes; competitor 125I-01B; 125I-01B as tracer.
Procedure: as §1
The target is the same in test [18]. Briefly: radioligand competition, hPAC1 CHO membranes; competitor 125I-28A.
Procedure: as §1

Several values for one entry are separate records, joined by “and”; a condition that tells them apart may be missing. Equal values may be shown once. Where no end group is shown, it is not given here.

By Ki is commonly meant the dissociation constant of the complex between target and ligand, obtained from inhibition or displacement. Read a high Ki as weaker binding. Broadly, the Kd is a measure of binding affinity in units of concentration. Read a high Kd as weaker binding.

B1: 29B (antibody, human IgG1, kappa, N297G)
heavy: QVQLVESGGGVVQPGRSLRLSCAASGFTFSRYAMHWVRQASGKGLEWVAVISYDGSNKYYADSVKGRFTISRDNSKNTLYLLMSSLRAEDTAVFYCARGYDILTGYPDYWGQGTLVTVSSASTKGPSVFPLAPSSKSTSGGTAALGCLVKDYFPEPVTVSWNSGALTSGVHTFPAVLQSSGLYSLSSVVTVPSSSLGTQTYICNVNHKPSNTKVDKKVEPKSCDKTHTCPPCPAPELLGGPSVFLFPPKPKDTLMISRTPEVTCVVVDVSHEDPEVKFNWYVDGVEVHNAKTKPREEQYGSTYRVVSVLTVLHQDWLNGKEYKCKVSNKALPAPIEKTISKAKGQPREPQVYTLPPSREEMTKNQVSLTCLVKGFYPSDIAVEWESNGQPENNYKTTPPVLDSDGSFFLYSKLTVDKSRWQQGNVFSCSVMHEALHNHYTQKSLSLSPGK
light: DIQLTQSPSFLSASVGDRVTITCRASQSIGRSLHWYQQKPGKAPKLLFKYASQSLSGVPSRFSGSGSGTEFTLTISSLQPEDFATYYCHQSSRLPFTFGPGTKVDIKRTVAAPSVFIFPPSDEQLKSGTASVVCLLNNFYPREAKVQWKVDNALQSGNSQESVTEQDSKDSTYSLSSTLTLSKADYEKHKVYACEVTHQGLSSPVTKSFNRGEC
notes: "B" suffix: aglycosylated IgG1 variant (N297G); also called LC-11 and HC-40
For the molecule B1, the Ki in test [1] stood at 0.07 nM; in test [3], 0.05 nM; in [4] it was 0.08 nM; in [5], 0.08 nM; in test [11], 0.14 nM. The molecule also displayed a Kd in [2] of 0.015 nM. Besides, the “rat PAC1 IC50 (cAMP assay)” value in [6] is 50.7 nM. For the same molecule, the “cyno PAC1 IC50 (cAMP assay)” value in test [7] was 0.5 nM. In addition, in test [8], the “hVPAC1 IC50 (cAMP assay)” value was above 10000 nM. Also, the “hVPAC2 IC50 (cAMP assay)” value in [9] was above 10000 nM. Also, the “hPAC1 IC50 (cAMP assay)” value in test [10] worked out at 0.9 nM.

B2: 29A (antibody, human IgG2, kappa)
heavy: QVQLVESGGGVVQPGRSLRLSCAASGFTFSRYAMHWVRQASGKGLEWVAVISYDGSNKYYADSVKGRFTISRDNSKNTLYLLMSSLRAEDTAVFYCARGYDILTGYPDYWGQGTLVTVSSASTKGPSVFPLAPCSRSTSESTAALGCLVKDYFPEPVTVSWNSGALTSGVHTFPAVLQSSGLYSLSSVVTVPSSNFGTQTYTCNVDHKPSNTKVDKTVERKCCVECPPCPAPPVAGPSVFLFPPKPKDTLMISRTPEVTCVVVDVSHEDPEVQFNWYVDGVEVHNAKTKPREEQFNSTFRVVSVLTVVHQDWLNGKEYKCKVSNKGLPAPIEKTISKTKGQPREPQVYTLPPSREEMTKNQVSLTCLVKGFYPSDIAVEWESNGQPENNYKTTPPMLDSDGSFFLYSKLTVDKSRWQQGNVFSCSVMHEALHNHYTQKSLSLSPGK
light: DIQLTQSPSFLSASVGDRVTITCRASQSIGRSLHWYQQKPGKAPKLLFKYASQSLSGVPSRFSGSGSGTEFTLTISSLQPEDFATYYCHQSSRLPFTFGPGTKVDIKRTVAAPSVFIFPPSDEQLKSGTASVVCLLNNFYPREAKVQWKVDNALQSGNSQESVTEQDSKDSTYSLSSTLTLSKADYEKHKVYACEVTHQGLSSPVTKSFNRGEC
notes: also called LC-11 and HC-39
In the case of B2, the Ki in [1] was 0.11 nM; in [12], 0.07 nM; in test [3], 0.08 nM; in [4], 0.09 nM; in test [5] it was 0.1 nM; in test [13] it was 0.04 nM. Further, the Ki in test [14] is 0.03 nM; in test [11] it was 0.13 nM; in [15], 0.06 nM. The molecule also gave a Kd in [2] of 0.013 nM.

B3: 39A (antibody, human IgG2, kappa)
heavy: QVQLQESGPGLVKPSQTLSLTCTVSGGSISSGGYYWSWIRQHPGKGLEWIGYIYYSGNTYYNPSLKSRVTISGDTSKNQFSLKLRSVTAADTAVYYCTRGGAARGMDVWGQGTTVTVSSASTKGPSVFPLAPCSRSTSESTAALGCLVKDYFPEPVTVSWNSGALTSGVHTFPAVLQSSGLYSLSSVVTVPSSNFGTQTYTCNVDHKPSNTKVDKTVERKCCVECPPCPAPPVAGPSVFLFPPKPKDTLMISRTPEVTCVVVDVSHEDPEVQFNWYVDGVEVHNAKTKPREEQFNSTFRVVSVLTVVHQDWLNGKEYKCKVSNKGLPAPIEKTISKTKGQPREPQVYTLPPSREEMTKNQVSLTCLVKGFYPSDIAVEWESNGQPENNYKTTPPMLDSDGSFFLYSKLTVDKSRWQQGNVFSCSVMHEALHNHYTQKSLSLSPGK
light: not shown
notes: also called 39A lot1; 39A lot2
As to B3, the Ki in test [1] is 0.17 nM and 0.14 nM; in test [12], 0.2 nM; in test [3], 0.2 nM and 0.18 nM; in test [4] it was 0.08 nM and 0.14 nM; in test [5], 0.24 nM and 0.43 nM; in test [14], 0.13 nM. For the same molecule, the Ki in test [11] was 0.3 nM and 0.15 nM; in test [15] it was 0.16 nM. Further, the affinity in test [2], expressed as Kd, was 0.036 nM.
Take HSDGIFTDSYSRYRKQMAVKKYLAAVLGKRYKQRVKNK (ligand, UniProt P18509 132-169, looked up, ends and bridges not checked) [PACAP38]: the “VPAC2 EC50 (agonist activity)” value in test [16] is 0.06 nM.
Turning to FTDSYSRYRKQMAVKKYLAAVLGKRYKQRVKNK (peptide, UniProt P18509 137-169, looked up, domain: PACAP 6-38) [PACAP 6-38], the Ki in test [1] was found to be 6.26 nM; in test [12], 4.08 nM; in [3], 4.91 nM; in [4] it was 2.39 nM; in test [5], 7.74 nM; in test [13], 4.05 nM. Moreover, the Ki was 4.98 nM in test [17], 2.51 nM in test [14], 2.78 nM in [15] and 2.06 nM in [18].
